Measurements reported in paper PMC10016618 (Nature cell biology, 2021).
Residue numbers refer to the chain shown, from its start. Numbers in names are those of the source. Where two headings read alike, the source gives them in different places. Each block holds one binder with its values, some of them ahead of it.

Tests used:
Gli2-ZF [1] = molecular target: T1, Gli2-ZF (human, UniProt P10070 418-604); assay: BLI
T1 sequence (looked up): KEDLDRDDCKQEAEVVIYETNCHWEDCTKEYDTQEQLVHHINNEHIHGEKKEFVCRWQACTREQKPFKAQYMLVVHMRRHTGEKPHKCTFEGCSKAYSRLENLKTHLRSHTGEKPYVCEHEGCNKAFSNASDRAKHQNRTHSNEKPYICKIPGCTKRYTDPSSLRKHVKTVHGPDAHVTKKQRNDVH

SEC = molecular target: the molecule itself; assay: SEC
Gli2-ZF [2] = molecular target: T1, Gli2-ZF; assay: BLI; remark: listed apart in the source

B5: GST-Kif7-CC (460-600aa) (domain or fragment, human, UniProt Q2M1P5 460-600, looked up)
chain: PDSGIESASVEDQAAQGAGGRKEDEGAQQLLTLQNQVARLEEENRDFLAALEDAMEQYKLQSDRLREQQEEMVELRLRLELVRPGWGGPRLLNGLPPGSFVPRPHTAPLGGAHAHVLGMVPPACLPGDEVGSEQRGEQVTN
- Kd (Gli2-ZF [1]): 48 ± 5 nM

B6: Kif7-DM(E502A)-GFP (domain or fragment, human, UniProt Q2M1P5 1-543, looked up)
chain: MGLEAQRLPGAEEAPVRVALRVRPLLPKELLHGHQSCLQVEPGLGRVTLGRDRHFGFHVVLAEDAGQEAVYQACVQPLLEAFFEGFNATVFAYGQTGSGKTYTMGEASVASLLEDEQGIVPRAMAEAFKLIDENDLLDCLVHVSYLEVYKEEFRDLLEVGTASRDIQLREDERGNVVLCGVKEVDVEGLDEVLSLLEMGNAARHTGATHLNHLSSRSHTVFTVTLEQRGRAPSRLPRPAPGQLLVSKFHFVDLAGSERVLKTGSTGERLKESIQINSSLLALGNVISALGDPQRRGSHIPYRDSKITRILKDSLGGNAKTVMIACVSPSSSDFDETLNTLNYASRAQNIRNRATVNWRPEAERPPEETASGARGPPRHRSETRIIHRGRRAPGPATASAAAAMRLGAECARYRACTDAAYSLLRELQAEPGLPGAAARKVRDWLCAVEGERSALSSASGPDSGIESASVEDQAAQGAGGRKEDEGAQQLLTLQNQVARLEEANRDFLAALEDAMEQYKLQSDRLREQQEEMVELRLRLELVRP
- stoichiometry N (SEC): 2

The next lines start with results.

- Kd (Gli2-ZF [1]): 69 ± 20 nM
B1: GST-Kif7-SCC (481-543aa) (domain or fragment, human, UniProt Q2M1P5 481-543, looked up)
chain: KEDEGAQQLLTLQNQVARLEEENRDFLAALEDAMEQYKLQSDRLREQQEEMVELRLRLELVRP

- Kd (Gli2-ZF [2]): 217 ± 70 nM
B2: Kif27M-Kif7CC-GFP (other, human, UniProt Q86VH2 1-475, looked up)
chain: MEEIPVKVAVRIRPLLCKEALHNHQVCVRVIPNSQQVIIGRDRVFTFDFVFGKNSTQDEVYNTCIKPLVLSLIEGYNATVFAYGQTGSGKTYTIGGGHIASVVEGQKGIIPRAIQEIFQSISEHPSIDFNVKVSYIEVYKEDLRDLLELETSMKDLHIREDEKGNTVIVGAKECHVESAGEVMSLLEMGNAARHTGTTQMNEHSSRSHAIFTISICQVHKNMEAAEDGSWYSPRHIVSKFHFVDLAGSERVTKTGNTGERFKESIQINSGLLALGNVISALGDPRRKSSHIPYRDAKITRLLKDSLGGSAKTVMITCVSPSSSNFDESLNSLKYANRARNIRNKPTVNFSPESDRIDEMEFEIKLLREALQSQQAGVSQTTQINREGSPDTNRIHSLEEQVAQLQGECLGYQCCVEEAFTFLVDLKDTVRLNEKQQHKLQEWFNMIQEVRKAVLTSFRGIGGTASLEEGPQHVTVPDSGIESASVEDQAAQGAGGRKEDEGAQQLLTLQNQVARLEEENRDFLAALEDAMEQYKLQSDRLREQQEEMVELRLRLELVRPGWGGPRLLNGLPPGSFVPRPHTAPLGGAHAHVLGMVPPACLPGDEVGSEQRGEQVTN
- stoichiometry N (SEC): 2

- Kd (Gli2-ZF [2]): 397 ± 88 nM
B3: Kif7M-Kif27CC-GFP (other, human, UniProt Q2M1P5 1-462, looked up)
chain: MGLEAQRLPGAEEAPVRVALRVRPLLPKELLHGHQSCLQVEPGLGRVTLGRDRHFGFHVVLAEDAGQEAVYQACVQPLLEAFFEGFNATVFAYGQTGSGKTYTMGEASVASLLEDEQGIVPRAMAEAFKLIDENDLLDCLVHVSYLEVYKEEFRDLLEVGTASRDIQLREDERGNVVLCGVKEVDVEGLDEVLSLLEMGNAARHTGATHLNHLSSRSHTVFTVTLEQRGRAPSRLPRPAPGQLLVSKFHFVDLAGSERVLKTGSTGERLKESIQINSSLLALGNVISALGDPQRRGSHIPYRDSKITRILKDSLGGNAKTVMIACVSPSSSDFDETLNTLNYASRAQNIRNRATVNWRPEAERPPEETASGARGPPRHRSETRIIHRGRRAPGPATASAAAAMRLGAECARYRACTDAAYSLLRELQAEPGLPGAAARKVRDWLCAVEGERSALSSASGPDSVLQLKRELKKCQCVLAADEVVFNQKELEVKELKNQVQMMVQENKGHAVSLKEAQKVNRLQNEKIIEQQLLVDQLSEELTKLNLSVTSSAKENCGDG

- binding result (Gli2-ZF [1]): binds
B4: GST-Kif7-CC D505A (domain or fragment, human, UniProt Q2M1P5 460-600, looked up)
chain: B5 chain with D46A
